Here are results for nine molecules from patent publication US20250361322A1 (ICONIC THERAPEUTICS, published 2025).

Changes are numbered by the printed parent chain.

T1: Macaca mulatta TF on RF/6A cells (Macaca mulatta (protein sequence stated …, UniProt P13726 33-294 (human entry)))
T1 construct: Endogenous TF of the RF/6A cell line; also called TF-positive Macaca mulatta RF/6A cells; cynomolgus TF
T1 chain: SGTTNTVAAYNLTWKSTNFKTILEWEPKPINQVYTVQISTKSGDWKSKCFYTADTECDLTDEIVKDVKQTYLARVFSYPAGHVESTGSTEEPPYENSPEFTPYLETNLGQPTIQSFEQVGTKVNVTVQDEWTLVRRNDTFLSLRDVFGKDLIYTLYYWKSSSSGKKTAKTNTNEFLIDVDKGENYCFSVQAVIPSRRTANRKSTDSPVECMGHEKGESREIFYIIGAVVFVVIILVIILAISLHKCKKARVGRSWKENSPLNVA

B1: 29D (antibody, human IgG1, V domains shown)
VH: QVQLVESGGGVVQPGRSLRLSCAASGFTFHSRGMHWVRQAPGKGLEWVAVITYDGINKYYADSVEGRFTISRDNSKNTLYLQMNSLRAEDTAVYYCARDGVYYGVYDYWGQGTLVTVSS
VL: not shown
notes: Human IgG1; also called antibody designated 29D
B2: 29E (antibody, human IgG1, V domains shown)
VH: B1 VH with H30R, R32Y
VL: not shown
notes: Human IgG1; also called antibody designated 29E
B3: 1G (antibody, human IgG1, V domains shown)
VH: EVQLLESGGGLVQPGGSLRLSCAASGFTFSSYAMAWVRQAPGKGLEWVSAISGSGGLTYYADSVKGRFTISRDNSKNTLYLQMNSLRAEDTAVYYCAKAPYGYYMDVWGKGTTVTVSS
VL: not shown
notes: Human IgG1; also called antibody designated 1G
B4: 54E (antibody, human IgG1, V domains shown)
VH: QVQLVQSGAEVKKPGASVKVSCKASGYTFANYYMHWVRQAPGQGLEWMGIINPSGGITVYAQKFQGRVTMTRDTSTSTVYMELSSLRSEDTAVYYCARGGSKVAALAFDIWGQGTMVTVSS
VL: DIQMTQSPSSLSASVGDRVTITCQASQDISNSLNWYQQKPGKAPKLLIYDASNLETGVPSRFSGSRSGTDFTFTISSLQPEDIATYYCQQYNFHPLTFGGGTKVEIK
notes: Human IgG1; also called antibody designated 54E
B5: 29E (antibody, human IgG1, V domains shown)
VH: B1 VH with H30R, R32Y
VL: not shown
notes: as for B2
B6: 54E (antibody, human IgG1, V domains shown)
VH: B4 VH
VL: B4 VL
notes: as for B4
B7: 25A (antibody, human IgG1, V domains shown)
VH: QVQLVQSGAEVKKPGASVKVSCKASGYTFDVYGISWVRQAPGQGLEWMGWIAPYNGNTNYAQKLQGRVTMTTDTSTSTAYMELRSLRSDDTAVYYCARDAGTYSPFGYGMDVWGQGTTVTVSS
VL: DIQMTQSPSTLSASVGDRVTITCRASQSISSWLAWYQQKPGKAPKLLIYKASSLESGVPSRFSGSGSGTEFTLTISSLQPDDFATYYCQQFQSLPPFTFGGGTKVEIK
notes: Human IgG1; also called antibody designated 25A
B8: 25G1 (antibody, human IgG1, V domains shown)
VH: B7 VH with D30R, V31S, I51V, N55S, F106Y
VL: B7 VL with Q27H, S30D, S53Y, Q90L
notes: Human IgG1; also called antibody designated 25G1
B9: 25A3 (antibody, human IgG1, V domains shown)
VH: B7 VH with N55S
VL: B7 VL with R24Q, S30N, S31N, S52Y, S53N, Q90L
notes: Human IgG1; also called antibody designated 25A3

In the first assay the target is T2, human Tissue Factor (TF) (human, UniProt P13726 33-295). Description: cell-based or functional assay.
Turning to B1, the “% IL8 at 2.56 nM antibody” value came out at 27%, the “% IL8 at 6.4 nM antibody” value came out at 6%, the “% IL8 at 16 nM antibody” value was 2% and the “% IL8 at 40 nM antibody” value was 2%. Besides, the “% IL8 at 100 nM antibody” value was 1%.
Regarding B2, the “% IL8 at 2.56 nM antibody” value worked out at 33%, the “% IL8 at 6.4 nM antibody” value worked out at 5%, the “% IL8 at 16 nM antibody” value was found to be 2% and the “% IL8 at 40 nM antibody” value worked out at 2%. Further, the “% IL8 at 100 nM antibody” value is 2%.
Regarding B3, the “% IL8 at 2.56 nM antibody” value is 26%, the “% IL8 at 6.4 nM antibody” value was determined as 4%, the “% IL8 at 16 nM antibody” value turned out to be 3% and the “% IL8 at 40 nM antibody” value was 2%. Moreover, the “% IL8 at 100 nM antibody” value was found to be 2%.
Regarding B4, the “% IL8 at 2.56 nM antibody” value stood at 48%, the “% IL8 at 6.4 nM antibody” value is 8%, the “% IL8 at 16 nM antibody” value came out at 3% and the “% IL8 at 40 nM antibody” value amounted to 2%. For the same molecule, the “% IL8 at 100 nM antibody” value was 2%.

The next assay addresses T2, human Tissue Factor (TF). Briefly: flow cytometry, MDA-MB-231 cells; competitor 20 nM FVII-Fc-Alexa488; antibody at 9.25 nM.
Description: (§1) After another 1 hr incubation on ice, cells were washed, stained with a viability dye, and analyzed by flow cytometry. The Alexa488 fluorescence data from viable cells was summarized using median fluorescence intensity.
For B1, the “% FVIIa” value was determined as 6%.
The same measure, in the same setting: the figure for B2 is 5%.
In the case of B3, the “% FVIIa” value turned out to be 7%.
The same measure, in the same setting: the figure for B4 is 11%.

The target of another assay is T2, human Tissue Factor (TF). Briefly: cell-based or functional assay. This is another data set of the same source.
As for B1, the “% GM-CSF at 2.56 nM antibody” value is 38%, the “% GM-CSF at 6.4 nM antibody” value is 15%, the “% GM-CSF at 16 nM antibody” value was 7% and the “% GM-CSF at 40 nM antibody” value amounted to 6%. The “% GM-CSF at 100 nM antibody” value amounted to 5%.
Consider B2, for which the “% GM-CSF at 2.56 nM antibody” value is 33%, the “% GM-CSF at 6.4 nM antibody” value was 9%, the “% GM-CSF at 16 nM antibody” value came out at 5% and the “% GM-CSF at 40 nM antibody” value came to 6%. Besides, the “% GM-CSF at 100 nM antibody” value amounted to 6%.
Take B3: the “% GM-CSF at 2.56 nM antibody” value came to 34%, the “% GM-CSF at 6.4 nM antibody” value turned out to be 9%, the “% GM-CSF at 16 nM antibody” value came out at 7% and the “% GM-CSF at 40 nM antibody” value came out at 7%. Also, the “% GM-CSF at 100 nM antibody” value was 7%.
On to B4, for which the “% GM-CSF at 2.56 nM antibody” value worked out at 38%, the “% GM-CSF at 6.4 nM antibody” value came to 10%, the “% GM-CSF at 16 nM antibody” value was 5% and the “% GM-CSF at 40 nM antibody” value came out at 5%. The “% GM-CSF at 100 nM antibody” value amounted to 5%.

The target of another assay is T2, human Tissue Factor (TF). Briefly: flow cytometry, MDA-MB-231 cells; competitor 20 nM FVII-Fc-Alexa488; antibody at 28 nM.
Description: as §1
For B1, the “% FVIIa” value is 4%.
Same read-out and setting: the figure for B2 is 3%; for B3 it is 7%; for B4 it is 3%.

Another assay addresses T2, human Tissue Factor (TF). Briefly: flow cytometry, A431 cells; antibody at 100 nM; competitor 20 nM 25A-Alexa488.
Description: as §1
As for B1, the “% 25A binding” value was 70%.
Same read-out and setting: the figure for B2 is 96%; for B3 it is 75%; for B4 it is 99%.

The target in another assay is T2, human Tissue Factor (TF). Briefly: cell-based or functional assay. This is another data set of the same source.
Take B1: the “% FXa at 12.5 nM antibody” value turned out to be 85%, the “% FXa at 25 nM antibody” value stood at 77%, the “% FXa at 50 nM antibody” value worked out at 75% and the “% FXa at 100 nM antibody” value amounted to 75%.
With B2, the “% FXa at 12.5 nM antibody” value is 81%, the “% FXa at 25 nM antibody” value turned out to be 68%, the “% FXa at 50 nM antibody” value came out at 63% and the “% FXa at 100 nM antibody” value was 66%.
On the same counts, the results for B3 are 55%, 48%, 41% and 41%.
The matching figures for B4: 53%, 44%, 41% and 42%.

The target of a further assay is T2, human Tissue Factor (TF). Description: flow cytometry, MDA-MB-231 cells; competitor 20 nM FVII-Fc-Alexa488; antibody at 83 nM.
Description: as §1
As to B1, the “% FVIIa” value was determined as 3%.
Same read-out and setting: the figure for B2 is 2%; for B3 it is 7%; for B4 it is 3%.

In the next assay the target is T1, Macaca mulatta TF on RF/6A cells. Briefly: flow cytometry, IgG1 titrated on TF-positive Macaca mulatta RF/6A cells, 4-parameter fit. On the technique in general: In flow cytometry, cells or beads pass a laser one at a time.
Description: After 2 washes, dead cells were labeled with TO-PRO-3 Iodide (ThermoFisher Scientific) and samples were analyzed on a CytoFLEX flow cytometer (Beckman Coulter, Brea, CA, USA) or Novocyte flow cytometer (ACEA Biosciences, San Diego, CA, USA). The median fluorescence intensities (MFIs) at each dilution were plotted and cell EC₅₀'s were derived using a 4-parameter binding model in Prism (GraphPad, La Jolla, CA, USA).
The EC50 is the midpoint of the concentration-response curve. Read a high EC50 as a need for much substance. As to B5, a half-maximal effect (EC50) was put at 0.53 nM.
For the molecule B6, the EC50 was found to be 1.28 nM.
Same read-out and setting: in the case of B7 it was 0.43 nM; in that of B8, 0.27 nM; in that of B9, 0.27 nM.

The target in a further assay is T2, human Tissue Factor (TF). Briefly: flow cytometry, MDA-MB-231 cells; competitor 20 nM FVII-Fc-Alexa488; antibody at 250 nM.
Description: as §1
On to B1, for which the “% FVIIa” value was found to be 3%.
Still for that read-out and setting: the figure for B2 is 2%; for B3 it is 6%; for B4 it is 2%.

A further assay has as its target T3, Expi293-derived TF-His (human (Example 17 does not restate the …, UniProt P13726 33-251)).
T3 construct: Glycosylated TF ECD-His6 from Expi293 cells; also called Expi293-derived TF protein; TF ECD-His6
Description: protein ELISA, plate coated with Expi293-derived TF-His, antibody titrated, HRP secondary, luminescence.
Description: (§2) Plates coated with Expi293- or E. coli-derived TF-His were incubated with increasing concentrations of antibodies.
In turn, B5 gave a concentration giving a half-maximal response (EC50) of 0.98 nM.
On the same count and under the same terms, in the case of B6 it was 0.96 nM; in that of B7, 0.54 nM.
In turn, B8 returned an EC50 of 0.42 nM.
Still for that read-out and setting: in the case of B9 it was 0.47 nM.

Another assay concerns the target T2, human Tissue Factor (TF). Briefly: flow cytometry, A431 cells; antibody at 100 nM; competitor 20 nM 43Ea-Alexa488.
Description: as §1
For B1, the “% 43Ea binding” value was 64%.
The same measure, in the same setting: the figure for B2 is 85%; for B3 it is 58%.
Same read-out and setting: the figure for B4 is 96%.

In the next assay the target is T4, E. coli-derived TF (human (Example 17 does not restate the …, UniProt P13726 33-251)).
T4 construct: also called E. coli-derived TF-His; E. coli-derived TF protein
Briefly: protein ELISA, plate coated with E. coli-derived TF-His, antibody titrated, HRP secondary, luminescence. Background: ELISA stands for enzyme-linked immunosorbent assay.
Description: as §2
With B5, the EC50 stood at 0.68 nM.
Molecule B6 gave an EC50 of 0.38 nM.
With B7, the EC50 was determined as 0.35 nM.
The same measure, in the same setting: in the case of B8 it was 0.31 nM; in that of B9, 0.36 nM.
